Assay results from article PMC2734165, “The Immune System Strikes Back: Cellular Immune Responses against Indoleamine 2,3-dioxygenase” (PLoS ONE, 2009).

B1: IFN-γ: IFN-γ, 100 U/ml for 2 days (protein, UniProt P01579 24-161, looked up)
Interferon gamma: QDPYVKEAENLKKYFNAGHSDVADNGTLFLGILKNWKEESDRKIMQSQIVSFYFKLFKNFKDDQSIQKSVETIKEDMNVKFFNSNKKKRDDFEKLTNYSVTDLNVQRKAIHELIQVMAELSPAAKTGKRKRSQMLFRG

Legend:
[1] = tested on: established murine cancers; details: ref [17]; cited from earlier work
Excerpt: The state of lymphopenia following high-dose chemotherapy appears to provide a window of enhanced responsiveness to immunotherapy. Additionally, certain chemotherapeutic drugs may assist in breaking immune tolerance by preferentially inhibition of Tregs, [47]. Nonetheless, chemotherapy alone is never sufficient to break tolerance to tumors probably because the original tolerogenic mechanisms rapidly restore tolerance following each cycle of chemotherapy. In principle, therefore, chemotherapy might provide an environment in which IDO-based immunotherapy could have a synergistic ...

[2] = tested on: breast cancer cell line CAMA-1; assay: 51Cr-release assay, CAMA-1; type: cell-based; details: IFN-γ 100 U/ml for 2 days
Experimental: (§1) Conventional ^51Cr-release assays for CTL-mediated cytotoxicity was carried out as described elsewhere. Target cells were T2-cells, in vitro generated autologous immature DC (iDC) and matured DC (mDC), in vitro generated allogeneic HLA-A2^+ iDC and mDC, autologous ex vivo isolated monocytes, T cells and B cells (isolated using CD14^+, CD3^+ or CD19^+ microbeads (MACS)), the natural killer target cell line K562, ex vivo enriched HLA-A2^+ AML-blasts (B and T cells were depleted from the bone marrow of AML patients using CD19^+ and CD3^+ microbeads (MACS)), the breast cancer cell lines CAMA-1 and MDA-MB-231, as well as the colon cancer cell lines HCT-116 and SW480 (all available at the American Type Culture Collection (ATCC)), and FM55M [27]. Lysis were blocked using the HLA specific mAb W6/32 (2 µg/100 µl). In some assays, target cells were treated with 100 U/ml IFN-γ for 2 days.
(§2) Figure 5 Functional capacity of IDO5-specific T cells to kill cancer cell lines treated with IFN-γ for up-regulation of IDO, or treated with IDO ShRNA for down-regulation of IDO. […] Intracellular IDO expression was given by a one-tailed two sampled t-test comparing MFIIDO (dark histograms) and MFIIsotype control (light histograms), where MFI is the Mean Fluorescence Intensity. […]

[3] = tested on: breast cancer cell line MDA-MB-231; assay: 51Cr-release assay, MDA-MB-231; type: cell-based; details: IFN-γ 100 U/ml for 2 days
Experimental: as §1, §2

[4] = tested on: autologous CD14^+ monocytes, CD3^+ T cells and CD19^+ B cells; assay: 51Cr-release assay, autologous monocytes, T cells and B cells; type: cell-based; details: CD19^+ B cells after IFN-γ treatment
Excerpt: Target cells were T2-cells, in vitro generated autologous immature DC (iDC) and matured DC (mDC), in vitro generated allogeneic HLA-A2^+ iDC and mDC, autologous ex vivo isolated monocytes, T cells and B cells (isolated using CD14^+, CD3^+ or CD19^+ microbeads (MACS)), the natural killer target cell line K562, ex vivo enriched HLA-A2^+ AML-blasts (B and T cells were depleted from the bone marrow of AML patients using CD19^+ and CD3^+ microbeads (MACS)), the breast cancer cell lines CAMA-1 and MDA-MB-231, as well as the colon cancer cell lines HCT-116 and SW480 (all available at the American Type Culture Collection (ATCC)), and FM55M [27]. Lysis were blocked using the HLA specific mAb W6/32 (2 µg/100 µl) [28]. In some assays, target cells were treated with 100 U/ml IFN-γ for 2 days.
Next, we tested the ability of RBS35 to lyse autologous monoctyes, T cells and B cells. For this purpose, we isolated CD14^+ monocytes, CD3^+ T cells and CD19^+ B cells directly ex vivo from IDO^+ PBMC. The isolated cells were subsequently used as target cells in a ^51Cr-release assay.
All assays were performed in different E∶T ratios. […] ( c ), Lysis of autologous CD14^+ monocytes, CD3^+ T cells and CD19^+ B cells isolated directly ex vivo from IDO^+ PBMC, and lysis of autologous CD14^+ monocytes, CD3^+ T cells and CD19^+ B cells after IFN-γ treatment. […]

[5] = tested on: IDO in CAMA-1 and MDA-MB-231; assay: Intracellular IDO staining, breast cancer cell lines; type: cell-based
Experimental: PBMC, DC, and cancer cells were examined for intracellular IDO expression using flow cytometry. After fixation and permeabilization (Cytofix/Cytoperm, BD), cells were stained with anti-IDO antibody (Millipore Corporation). For comparison, cells were stained with an isotype matched control (Millipore Corporation). After incubation, cells were washed twice with Perm/Washbuffer (BD) before staining with a FITC-labeled secondary antibody (DAKO). The samples were analyzed on BD FACS Aria, using DIVA software (BD Biosciences). Assuming normality, intracellular IDO expression was given by a one-tailed two sampled t-test comparing MFIIDO and MFIIsotype control, where MFI is the Mean Fluorescence Intensity. […]
(§3) Statistical analysis was performed on data on intracellular IDO staining. Assuming normality, intracellular IDO expression was given by a one-tailed two sampled t-test comparing MFIIDO and MFIIsotype control, where MFI is the Mean Fluorescence Intensity. […] HLA-A2 expression was determined using the same approach.
as §2

[6] = tested on: HLA-A2 on CAMA-1 and MDA-MB-231; assay: HLA-A2 surface staining, breast cancer cell lines; type: cell-based
Experimental: Cancer cells were examined for HLA-A2 expression using flow cytometry. Cells were stained with a fluorochrome-coupled HLA-A2 mAb (BD Bioscience). For comparison, cells were stained with an isotype matched control. The samples were analyzed on BD FACS Aria, using DIVA software (BD Biosciences). Assuming normality, HLA-A2 expression was given by a one-tailed two sampled t-test comparing MFIHLA-A2 and MFIIsotype control, where MFI is the Mean Fluorescence Intensity. For p-values <0.05 (significance level) cells were defined HLA-A2^+. The fold of expression was defined as MFIHLA-A2/MFIIsotype control.
as §3, with “Intensity. For p-values <0.05 (significance level) cells were defined IDO^+.” for “Intensity.”
as §2

[7] = CAMA-1 and MDA-MB-231, IFN-γ 100 U/ml for 2 days

Molecule | Synergy with chemotherapy drugs [1] | Effect on killing of CAMA-1 by RBS35 [2] | Effect on killing of MDA-MB-231 by RBS35 [3] | Effect of IFN-γ on killing of autologous immune cells by RBS35 [4] | Fold of IDO expression, MFIIDO/MFIIsotype control ([5]; CAMA-1 + IFN-γ treatment, p = 0.004, before treatment 2.3 (p = 0.020), representative of 3 experiments) | IDO expression after treatment [5, 7] | Fold of HLA-A2 expression (printed as MFIIDO/MFIHLA-A2) ([6]; CAMA-1 + IFN-γ treatment, p = 0.002, before treatment 43.7 (p = 0.004), representative of 3 experiments) | HLA-A2 expression after treatment [6, 7]
Cn1cc(C[C@H](N)C(=O)O)c2ccccc21 [1-Methyl-Tryptophan] | work synergistically with different chemotherapy drugs in established murine cancers | – | – | – | – | – | – | –
B1 | – | increased the killing by RBS35 of CAMA-1 | introduced killing of the MDA-MB-231 cells | introduced killing of the CD14^+ monocytes, but not of the T and B cells | 3.5 | increased the expression of IDO and HLA-A2 in both cell lines | 141.2 | increased the expression of IDO and HLA-A2 in both cell lines
